Measured values from publication PMC5124697, “Expression Profiles and DNA-Binding Affinity of Five ERF Genes in Bunches of Vitis vinifera cv. Cardinal Treated with High Levels of CO2 at Low Temperature”.

How the values were obtained:
Test in all cases: EMSA; EMSA: 2 ug protein in 20 ul, 80 nM biotin probe, 50 ng/ul poly(dI-dC), 2.5% glycerol, 1x binding buffer (composition and pH not given), room temperature 20 min; 6% native PAGE, 0.5x TBE; competition 500x unlabeled probe (50 uM unlabeled DNA listed)
Settings in all cases: protein: recombinant; tags: N-terminal His (pTrcHisA); label: 3' biotin
VviERF6L7-c = VviERF6L7-c (Vitis vinifera cv. Cardinal, UniProt A0A1L6BXF1 1-277)
VviERF6L7-c, sequence (A0A1L6BXF1 entry or part of it): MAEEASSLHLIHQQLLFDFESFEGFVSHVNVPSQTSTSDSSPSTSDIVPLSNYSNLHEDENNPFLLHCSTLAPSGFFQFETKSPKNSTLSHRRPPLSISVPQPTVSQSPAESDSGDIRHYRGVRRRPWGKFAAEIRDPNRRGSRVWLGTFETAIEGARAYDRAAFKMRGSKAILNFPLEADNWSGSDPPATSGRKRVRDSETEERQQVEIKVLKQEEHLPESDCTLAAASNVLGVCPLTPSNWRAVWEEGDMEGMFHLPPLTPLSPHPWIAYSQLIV

VviERF11-c = VviERF11-c (Vitis vinifera cv. Cardinal, UniProt A0A1L6BXF0 1-220)
VviERF11-c, sequence (A0A1L6BXF0 entry or part of it): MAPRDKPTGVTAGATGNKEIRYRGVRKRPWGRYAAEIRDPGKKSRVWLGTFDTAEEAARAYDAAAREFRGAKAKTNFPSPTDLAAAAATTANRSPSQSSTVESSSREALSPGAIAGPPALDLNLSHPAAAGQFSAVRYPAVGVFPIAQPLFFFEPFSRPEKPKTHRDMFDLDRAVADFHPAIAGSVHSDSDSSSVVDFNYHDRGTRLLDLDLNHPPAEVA

VviERF069-c = VviERF069-c (Vitis vinifera cv. Cardinal, UniProt A0A1L6BXE7 1-285)
VviERF069-c, sequence (A0A1L6BXE7 entry or part of it): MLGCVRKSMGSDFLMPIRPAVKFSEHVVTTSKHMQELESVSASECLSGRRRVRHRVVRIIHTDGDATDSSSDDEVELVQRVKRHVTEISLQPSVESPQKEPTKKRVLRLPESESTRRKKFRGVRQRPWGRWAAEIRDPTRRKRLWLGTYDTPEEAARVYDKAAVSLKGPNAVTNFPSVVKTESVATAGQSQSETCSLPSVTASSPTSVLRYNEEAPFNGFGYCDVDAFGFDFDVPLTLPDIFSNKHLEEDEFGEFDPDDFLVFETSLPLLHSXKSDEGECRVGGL

VviERF10-c = VviERF10-c (Vitis vinifera cv. Cardinal, UniProt F6HIF5 1-204)
VviERF10-c, sequence (F6HIF5 entry or part of it): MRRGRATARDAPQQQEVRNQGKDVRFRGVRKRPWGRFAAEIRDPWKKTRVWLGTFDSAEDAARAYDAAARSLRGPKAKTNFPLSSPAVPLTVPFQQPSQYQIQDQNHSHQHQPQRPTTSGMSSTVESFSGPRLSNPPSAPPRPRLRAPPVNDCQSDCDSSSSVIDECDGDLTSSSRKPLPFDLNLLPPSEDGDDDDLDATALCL

VviERF2-c = VviERF2-c (Vitis vinifera cv. Cardinal, UniProt A0A1L6BXE6 1-282)
VviERF2-c, sequence (A0A1L6BXE6 entry or part of it): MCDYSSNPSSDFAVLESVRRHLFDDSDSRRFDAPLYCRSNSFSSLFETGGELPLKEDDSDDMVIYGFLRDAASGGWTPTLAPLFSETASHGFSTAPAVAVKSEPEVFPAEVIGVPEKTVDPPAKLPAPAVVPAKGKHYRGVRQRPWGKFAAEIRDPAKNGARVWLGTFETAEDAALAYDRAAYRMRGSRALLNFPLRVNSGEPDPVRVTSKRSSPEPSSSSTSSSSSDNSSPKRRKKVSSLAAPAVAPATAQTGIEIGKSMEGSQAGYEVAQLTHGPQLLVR

Binder | binding result (VviERF6L7-c) | binding result (VviERF11-c) | binding result (VviERF069-c) | binding result (VviERF10-c) | binding result (VviERF2-c)
Nt-chit GCC box (dsDNA) DNA 1: AAGAGCCGCCACTA DNA 2: TAGTGGCGGCTCTT | no binding | no binding | no binding | no binding | no binding
Le-osmo GCC box (dsDNA) DNA 1: AAAAGCCGCCACAC DNA 2: GTGTGGCGGCTTTT | no binding | no binding | no binding | no binding | no binding
Vcchit1b GCC box (dsDNA) DNA 1: AAAAGCCGCCCACG DNA 2: CGTGGGCGGCTTTT |  | binds |  |  | binds
Vcgns1 GCC box (dsDNA) DNA 1: TGGAGCCGCCGGGA DNA 2: TCCCGGCGGCTCCA | no binding |  |  |  | 
